{"source": "paper PMC12781872", "biological_target": "Dylight488-labelled Mtb RNAP core derivative (β' D359 4-azido-L-phenylalanine) (Mycobacterium tuberculosis) (UniProt P9WGZ1)", "experiment": "FRET or BRET", "note": "Where “and” joins values, the source holds several entries; their conditions need not be identical. Equal entries are not always repeated.", "data": [{"substance": "TMR-labelled Mtb σ^F used in the FRET competition and titration assays (from UniProt P9WGI3 1-261) (natural protein)", "values": [{"measurement": "Kd", "value": "21.1 nM and 2.6 nM"}]}]}
